Source: patent US20260210939A1, “MODIFIED OLFACTORY RECEPTORS” (GIVAUDAN SA, priority 2022, published 2026)
Like-named read-outs stand apart in the source and are kept apart here.

Assays:
[1] = molecular target: T1, OR2T4 (Homo sapiens, UniProt Q8NH00, D328E/G331D/M330K); settings: for ligand identification in sulfur odorant screen: OR2T4 with optimized C-terminus SEQ ID NO: 86; for % of the activation by the optimized sequence RNKEVKDALKRLLKRKCC: OR2T4 variant
T1 sequence (Q8NH00 with tags, fused parts or gaps D328E/M330K/G331D): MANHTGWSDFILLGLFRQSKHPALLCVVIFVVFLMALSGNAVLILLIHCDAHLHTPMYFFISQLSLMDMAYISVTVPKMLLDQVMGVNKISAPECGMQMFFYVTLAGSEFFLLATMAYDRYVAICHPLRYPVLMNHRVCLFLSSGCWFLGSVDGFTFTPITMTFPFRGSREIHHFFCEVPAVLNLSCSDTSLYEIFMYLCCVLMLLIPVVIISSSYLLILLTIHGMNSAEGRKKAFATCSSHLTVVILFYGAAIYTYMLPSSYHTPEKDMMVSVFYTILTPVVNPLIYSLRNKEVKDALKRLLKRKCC

[2] = molecular target: T2, OR7C1 (Homo sapiens, UniProt O76099, D296E/G302K/M297V/R299D/T295K/V126I); test: CRE-luciferase assay, HEK293T cells expressing OR7C1 (wild-type / modified C-terminus); type: cell-based; settings: OR7C1 variant, 1 μM Ambermax
T2 construct: Improved functional expression of modified OR-genes containing the truncated, optimized C-terminus; expressed in transfected cells; host or cells: HEK293T stably expressing human RTP1S(V227I) and RTP2(L220R)
T2 sequence (O76099 with tags, fused parts or gaps V126I/T295K/D296E/M297V/R299D/G302K): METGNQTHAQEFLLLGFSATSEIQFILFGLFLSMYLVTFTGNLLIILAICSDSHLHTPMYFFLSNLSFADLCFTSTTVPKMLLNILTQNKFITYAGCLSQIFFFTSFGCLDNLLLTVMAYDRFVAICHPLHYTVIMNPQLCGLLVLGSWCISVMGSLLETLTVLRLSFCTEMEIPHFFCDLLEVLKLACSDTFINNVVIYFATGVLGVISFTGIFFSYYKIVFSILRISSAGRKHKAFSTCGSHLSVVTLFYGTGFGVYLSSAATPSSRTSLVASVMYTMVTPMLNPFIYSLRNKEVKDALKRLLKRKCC
From the text: To test for possible variants of the sequence […]CC (SEQ ID NO: 86) leading to similar improved functional expression, different point mutations were introduced into the first 16 amino acids of this sequence (corresponding to […], SEQ ID NO: 10) and the variants were fused after the TM7 with OR7C1. […] The test concentrations were selected to fall into the range of partial activity of the wild-type sequence.

[3] = molecular target: T3, OR5B12 (Homo sapiens, UniProt Q96R08, C141R); test: CRE-luciferase assay, HEK293T cells expressing OR5B12 (wild-type / modified C-terminus); type: cell-based; settings: OR5B12 variant
T3 construct: Improved functional expression of modified OR-genes containing the truncated, optimized C-terminus; expressed in transfected cells; host or cells: HEK293T stably expressing human RTP1S(V227I) and RTP2(L220R)
T3 sequence (Q96R08 with tags, fused parts or gaps C141R): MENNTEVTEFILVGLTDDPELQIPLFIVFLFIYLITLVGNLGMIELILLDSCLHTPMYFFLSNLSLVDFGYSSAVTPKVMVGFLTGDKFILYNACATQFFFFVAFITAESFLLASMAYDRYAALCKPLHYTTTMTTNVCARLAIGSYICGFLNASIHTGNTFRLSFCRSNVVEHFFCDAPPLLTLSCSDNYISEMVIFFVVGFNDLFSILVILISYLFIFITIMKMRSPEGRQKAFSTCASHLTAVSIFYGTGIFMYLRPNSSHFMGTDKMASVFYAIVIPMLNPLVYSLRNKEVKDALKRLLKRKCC

[4] = 10 μM Cyclopentanethiol, 30 μM copper
[5] = 31 μM Cyclopentanethiol, 30 μM copper
[6] = 4 μM 2-methyl-3-tetrahydrofuranethiol
[7] = 8 μM 2-methyl-3-tetrahydrofuranethiol

| Compound | ligand identification in sulfur odorant screen [1] | % of the activation by the optimized sequence RNKEVKDALKRLLKRKCC [2] [%] | % of the activation by the optimized sequence RNKEVKDALKRLLKRKCC [1, 4] [%] | % of the activation by the optimized sequence RNKEVKDALKRLLKRKCC [1, 5] [%] | % of the activation by the optimized sequence RNKEVKDALKRLLKRKCC ([3]; 31 μM Hedione HC) [%] | % of the activation by the optimized sequence RNKEVKDALKRLLKRKCC ([3]; 62.5 μM Hedione HC) [%] | % of the activation by the optimized sequence RNKEVKDALKRLLKRKCC [1, 6] [%] | % of the activation by the optimized sequence RNKEVKDALKRLLKRKCC [1, 7] [%] |
| --- | --- | --- | --- | --- | --- | --- | --- | --- |
| CC1OCCC1S (stereo not drawn) [2-methyl-3-tetrahydrofuranthiol, reference compound] | good ligands |  |  |  |  |  |  |  |
| CCCSSCCC [dipropyl disulfide, reference compound] | good ligands |  |  |  |  |  |  |  |
| SEQ ID NO: 10 (RNKEVKDALKRLLKRK; source 1..16: note = C-terminal domain sequence) |  | 89.5 | 25.3 | 25.2 | 0 | 0 |  |  |
| SEQ ID NO: 114 (RNKEVKRAIKRLLKRKCC; source 1..18: note = C-terminal domain sequence) |  | 262.4 |  |  | 317.8 | 195.1 | 108.8 | 116.6 |
| SEQ ID NO: 115 (RNKEVKKAIKRLLKRKCC; source 1..18: note = C-terminal domain sequence) |  |  |  |  | 349.2 | 242.5 | 103.1 | 115.2 |
| SEQ ID NO: 116 (RNKEVKRAIKRLFKRKCC; source 1..18: note = C-terminal domain sequence) |  | 393.9 |  |  | 433.2 | 303.9 | 63.3 | 77.0 |
| SEQ ID NO: 118 (RNKEVKRAIRKLLKRKCC; source 1..18: note = C-terminal domain sequence) |  | 288.9 |  |  | 126.2 | 136.1 | 80.6 | 98.4 |
| SEQ ID NO: 121 (RNKEVKRAIKRLLKRKCR; source 1..18: note = C-terminal domain sequence) |  | 346.4 |  |  | 342.8 | 242.1 | 139.9 | 150.6 |
| SEQ ID NO: 122 (RNKEVKKAIKRLLKRKCR; source 1..18: note = C-terminal domain sequence) |  | 258.8 |  |  | 331.3 | 222.3 | 97.3 | 102.0 |
| SEQ ID NO: 133 (RNKEVKDALKRLLKRKCRR; source 1..19: note = C-terminal domain sequence) |  | 188.9 |  |  |  |  | 101.4 | 110.0 |
| SEQ ID NO: 138 (RNKEVKDALKRLLKRKCCS; source 1..19: note = C-terminal domain sequence) |  |  |  |  | 176.99 | 75.63 |  |  |
| SEQ ID NO: 139 (RNKEVKDALKRLLKRKCCP; source 1..19: note = C-terminal domain sequence) |  |  |  |  | 98.68 | 98.17 |  |  |
| SEQ ID NO: 140 (RNKEVKDALKRLLKRKCCA; source 1..19: note = C-terminal domain sequence) |  |  |  |  | 230.04 | 143.71 |  |  |
| SEQ ID NO: 141 (RNKEVKDALKRLLKRKCCY; source 1..19: note = C-terminal domain sequence) |  |  |  |  | 298.48 | 274.09 |  |  |
| SEQ ID NO: 142 (RNKEVKDALKRLLKRKCCH; source 1..19: note = C-terminal domain sequence) |  |  |  |  | 142.62 | 129.19 |  |  |
| SEQ ID NO: 143 (RNKEVKDALKRLLKRKCCN; source 1..19: note = C-terminal domain sequence) |  |  |  |  | 137.13 | 91.94 |  |  |
| SEQ ID NO: 144 (RNKEVKDALKRLLKRKCCD; source 1..19: note = C-terminal domain sequence) |  |  |  |  | 86.54 | 56.54 |  |  |
| SEQ ID NO: 145 (RNKEVKDALKRLLKRKCCK; source 1..19: note = C-terminal domain sequence) |  |  |  |  | 280.71 | 237.30 |  |  |
| SEQ ID NO: 146 (RNKEVKDALKRLLKRKCCR; source 1..19: note = C-terminal domain sequence) |  |  |  |  | 619.88 | 248.52 |  |  |
| SEQ ID NO: 147 (RNKEVKDALKRLLKRKCCG; source 1..19: note = C-terminal domain sequence) |  |  |  |  | 394.57 | 300.08 |  |  |
| SEQ ID NO: 148: printed for RNKEVKDALKRLLKRKCRR in Table 6 |  |  |  |  | 181.2 | 189.0 |  |  |
| SEQ ID NO: 149 (RNKEVKDALKRLLKRKCRRR; source 1..20: note = C-terminal domain sequence) |  | 265.3 |  |  | 254.8 | 231.7 | 108.0 | 135.7 |
| SEQ ID NO: 150 (RNKEVKDALKRLLKRKCRKK; source 1..20: note = C-terminal domain sequence) |  | 196.0 |  |  | 182.3 | 145.7 | 94.8 | 96.5 |
| SEQ ID NO: 151 (RNKEVKDALKRLLKRKCCRR; source 1..20: note = C-terminal domain sequence) |  |  |  |  | 240.6 | 229.5 |  |  |
| SEQ ID NO: 198 (RNKEVKDALKRLLKRKC; source 1..17: note = C-terminal domain sequence) |  | 137.7 | 37.7 | 63.5 | 0 | 0 |  |  |
| SEQ ID NO: 219 (RNKEVKDALKRLLKRKCCRRRR; source 1..22: note = C-terminal domain sequence) |  |  |  |  | 244.3 | 239.6 |  |  |
| SEQ ID NO: 220 (RNKEVKKAIKRLLKRKCCRRR; source 1..21: note = C-terminal domain sequence) |  |  |  |  | 1092.9 | 922.2 | 76.6 | 61.9 |
